Data: paper PMC4021819, “LIM homeodomain transcription factor Isl1 directs normal pyloric development by targeting Gata3”

T1: Isl1 C-terminal fragment (LIM domains removed) (UniProt P61372 134-349)
T1 sequence: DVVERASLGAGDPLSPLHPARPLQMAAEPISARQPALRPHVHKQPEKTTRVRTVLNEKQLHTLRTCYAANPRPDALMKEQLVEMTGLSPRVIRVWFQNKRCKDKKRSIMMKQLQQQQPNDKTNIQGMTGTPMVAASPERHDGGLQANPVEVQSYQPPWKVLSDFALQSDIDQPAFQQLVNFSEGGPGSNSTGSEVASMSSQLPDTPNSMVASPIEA


What was measured:
[1] = target: T1, Isl1 C-terminal fragment (LIM domains …); assay: EMSA; self-competed by 100x unlabeled; blocked by Isl1 antibody 40.2D6; 40 mM KCl, 15 mM HEPES pH 7.9, 1 mM EDTA, 0.5 mM DTT, 5% glycerol, 50 ng/ul poly(dI-dC), 2 nM probe, 20 ul, room temperature 20 min; 6% native PAGE in 0.5x TBE; conditions: protein: ivt; label: 5'-biotin (probe); blunt
[2] = target: T1, Isl1 C-terminal fragment (LIM domains …); assay: competition; 100x unlabeled mutant vs site 1 probe; 40 mM KCl, 15 mM HEPES pH 7.9, 1 mM EDTA, 0.5 mM DTT, 5% glycerol, 50 ng/ul poly(dI-dC), 2 nM probe, 20 ul, room temperature 20 min; 6% native PAGE in 0.5x TBE; conditions: protein: ivt; blunt
[3] = target: T1, Isl1 C-terminal fragment (LIM domains …); assay: competition; 100x unlabeled mutant vs site 3 probe; 40 mM KCl, 15 mM HEPES pH 7.9, 1 mM EDTA, 0.5 mM DTT, 5% glycerol, 50 ng/ul poly(dI-dC), 2 nM probe, 20 ul, room temperature 20 min; 6% native PAGE in 0.5x TBE; conditions: protein: ivt; blunt

| Binder | binding result [1] | also measured |
| --- | --- | --- |
| Gata3-P1 number 3 wild type (dsDNA) DNA 1: CCTGGAGGGGCCTATTAGATATTTTGTTTT DNA 2: AAAACAAAATATCTAATAGGCCCCTCCAGG | binds | – |
| Gata3-P1 number 1 mutant (dsDNA) DNA 1: GTCCTCTTTCCCACGGCCCCACTGTCAGTC DNA 2: GACTGACAGTGGGGCCGTGGGAAAGAGGAC | – | binding result [2]: no binding |
| Gata3-P1 number 1 wild type (dsDNA) DNA 1: GTCCTCTTTCCCAATTACCCACTGTCAGTC DNA 2: GACTGACAGTGGGTAATTGGGAAAGAGGAC | binds | – |
| Gata3-P1 number 3 mutant (dsDNA) DNA 1: CCTGGAGGGGCCTCGGCGATATTTTGTTTT DNA 2: AAAACAAAATATCGCCGAGGCCCCTCCAGG | – | binding result [3]: no binding |
